Results: patent publication US5866538A, “Insulin preparations containing NaCl” (Novo Nordisk A/S, priority 1996, dated 1999)

Tests used:
[1] = Stability tests of Asp^B28 human insulin preparations in Penfill cartridges, varying phosphate and NaCl (Example IV); type: physicochemical; conditions: 19.6 μg Zn/100 U insulin, pH 7.4
Procedure: 375.7 mg Asp^B28 human insulin was dissolved in water by adding 1.6 ml 0.2N HCl and 49 μl zinc chloride solution (40 mg Zn/ml). 20 g of a solution containing 80 mg/g glycerol, 7.50 mg/g phenol and 8.60 mg/g m-cresol was added to the solution while mixing. Varying amounts (3.71 g to 6.71 g) of a solution containing 24.0 mg/g disodium phosphate dihydrate and 11 μl/g 2N sodium hydroxide was added while mixing, finally varying amounts (0 g to 3.65 g) of a solution containing 40 mg/g sodium chloride were added while mixing so as to obtain a sodium chloride concentration mentioned in table 6. pH was adjusted to pH 7.40±0.05 and water added up to 100 ml. The Asp^B28 Human insulin preparations were introduced into Penfill® cartridges and subjected to stability tests at 25° C. and 37° C. The stability data at the two different temperatures and three different phosphate concentrations and at 19.6 μg Zn/100 U insulin and pH=7.4 are summarized in Tables 4, 5 and 6.

[2] = Stability of Asp^B28 human insulin solutions with varying Zn, NaCl and pH (Example I); type: physicochemical; conditions: 4 weeks at 37° C.
Procedure: Solutions containing 100 U/ml Asp^B28 human insulin, 2.6 mg/ml phenol, 16 mg/ml glycerol and varying amounts of Zn and sodium chloride were prepared. The pH was varied in the range of 7.2 to 7.5.

[3] = 6 weeks at 37° C., NaCl added 0 mM, total Cl^- 3.8 mM, phosphate 5 mM
[4] = 6 weeks at 37° C., NaCl added 0 mM, total Cl^- 3.8 mM, phosphate 7 mM
[5] = 6 weeks at 37° C., NaCl added 0 mM, total Cl^- 3.8 mM, phosphate 9 mM
[6] = 6 weeks at 37° C., NaCl added 5 mM, total Cl^- 8.8 mM, phosphate 5 mM
[7] = 6 weeks at 37° C., NaCl added 5 mM, total Cl^- 8.8 mM, phosphate 7 mM
[8] = 6 weeks at 37° C., NaCl added 5 mM, total Cl^- 8.8 mM, phosphate 9 mM
[9] = 6 weeks at 37° C., NaCl added 10 mM, total Cl^- 13.8 mM, phosphate 5 mM
[10] = 6 weeks at 37° C., NaCl added 10 mM, total Cl^- 13.8 mM, phosphate 7 mM
[11] = 6 weeks at 37° C., NaCl added 10 mM, total Cl^- 13.8 mM, phosphate 9 mM
[12] = 6 weeks at 37° C., NaCl added 15 mM, total Cl^- 18.8 mM, phosphate 5 mM
[13] = 6 weeks at 37° C., NaCl added 15 mM, total Cl^- 18.8 mM, phosphate 7 mM
[14] = 6 weeks at 37° C., NaCl added 15 mM, total Cl^- 18.8 mM, phosphate 9 mM
[15] = 6 weeks at 37° C., NaCl added 20 mM, total Cl^- 23.8 mM, phosphate 5 mM
[16] = 6 weeks at 37° C., NaCl added 20 mM, total Cl^- 23.8 mM, phosphate 7 mM
[17] = 6 weeks at 37° C., NaCl added 20 mM, total Cl^- 23.8 mM, phosphate 9 mM
[18] = 6 weeks at 37° C., NaCl added 25 mM, total Cl^- 28.8 mM, phosphate 5 mM
[19] = 6 weeks at 37° C., NaCl added 25 mM, total Cl^- 28.8 mM, phosphate 7 mM
[20] = 6 weeks at 37° C., NaCl added 25 mM, total Cl^- 28.8 mM, phosphate 9 mM
[21] = 12 weeks at 25° C., NaCl added 0 mM, total Cl^- 3.8 mM, phosphate 5 mM
[22] = 12 weeks at 25° C., NaCl added 0 mM, total Cl^- 3.8 mM, phosphate 7 mM
[23] = 12 weeks at 25° C., NaCl added 5 mM, total Cl^- 8.8 mM, phosphate 5 mM
[24] = 12 weeks at 25° C., NaCl added 5 mM, total Cl^- 8.8 mM, phosphate 7 mM
[25] = 12 weeks at 25° C., NaCl added 5 mM, total Cl^- 8.8 mM, phosphate 9 mM
[26] = 12 weeks at 25° C., NaCl added 10 mM, total Cl^- 13.8 mM, phosphate 5 mM
[27] = 12 weeks at 25° C., NaCl added 10 mM, total Cl^- 13.8 mM, phosphate 7 mM
[28] = 12 weeks at 25° C., NaCl added 10 mM, total Cl^- 13.8 mM, phosphate 9 mM
[29] = 12 weeks at 25° C., NaCl added 15 mM, total Cl^- 18.8 mM, phosphate 5 mM
[30] = 12 weeks at 25° C., NaCl added 15 mM, total Cl^- 18.8 mM, phosphate 7 mM
[31] = 12 weeks at 25° C., NaCl added 15 mM, total Cl^- 18.8 mM, phosphate 9 mM
[32] = 12 weeks at 25° C., NaCl added 20 mM, total Cl^- 23.8 mM, phosphate 5 mM
[33] = 12 weeks at 25° C., NaCl added 20 mM, total Cl^- 23.8 mM, phosphate 7 mM
[34] = 12 weeks at 25° C., NaCl added 20 mM, total Cl^- 23.8 mM, phosphate 9 mM
[35] = 12 weeks at 25° C., NaCl added 25 mM, total Cl^- 28.8 mM, phosphate 5 mM
[36] = 12 weeks at 25° C., NaCl added 25 mM, total Cl^- 28.8 mM, phosphate 7 mM
[37] = 12 weeks at 25° C., NaCl added 25 mM, total Cl^- 28.8 mM, phosphate 9 mM
[38] = 13.1 μg Zn/100 U insulin, NaCl 0 mM, pH 7.2
[39] = 13.1 μg Zn/100 U insulin, NaCl 0 mM, pH 7.5
[40] = 13.1 μg Zn/100 U insulin, NaCl 5 mM, pH 7.2
[41] = 13.1 μg Zn/100 U insulin, NaCl 5 mM, pH 7.5
[42] = 13.1 μg Zn/100 U insulin, NaCl 20 mM, pH 7.2
[43] = 13.1 μg Zn/100 U insulin, NaCl 20 mM, pH 7.5
[44] = 16.3 μg Zn/100 U insulin, NaCl 0 mM, pH 7.2
[45] = 16.3 μg Zn/100 U insulin, NaCl 0 mM, pH 7.4
[46] = 16.3 μg Zn/100 U insulin, NaCl 5 mM, pH 7.2
[47] = 16.3 μg Zn/100 U insulin, NaCl 5 mM, pH 7.5
[48] = 16.3 μg Zn/100 U insulin, NaCl 20 mM, pH 7.2
[49] = 16.3 μg Zn/100 U insulin, NaCl 20 mM, pH 7.5
[50] = 19.6 μg Zn/100 U insulin, NaCl 0 mM, pH 7.2
[51] = 19.6 μg Zn/100 U insulin, NaCl 0 mM, pH 7.5
[52] = 19.6 μg Zn/100 U insulin, NaCl 5 mM, pH 7.2
[53] = 19.6 μg Zn/100 U insulin, NaCl 5 mM, pH 7.5
[54] = 19.6 μg Zn/100 U insulin, NaCl 20 mM, pH 7.2
[55] = 19.6 μg Zn/100 U insulin, NaCl 20 mM, pH 7.5
[56] = 22.8 μg Zn/100 U insulin, NaCl 0 mM, pH 7.2
[57] = 22.8 μg Zn/100 U insulin, NaCl 0 mM, pH 7.5
[58] = 22.8 μg Zn/100 U insulin, NaCl 5 mM, pH 7.2
[59] = 22.8 μg Zn/100 U insulin, NaCl 5 mM, pH 7.5
[60] = 22.8 μg Zn/100 U insulin, NaCl 20 mM, pH 7.2
[61] = 22.8 μg Zn/100 U insulin, NaCl 20 mM, pH 7.5

## Asp^B28 human insulin
[1]; [3]
  Asp^B28 Des-amido insulins formed: 4.7%
  Di- & polymers formed: 1.4%
[1]; [4]
  Asp^B28 Des-amido insulins formed: 4.3%
  Di- & polymers formed: 1.2%
[1]; [5]
  Asp^B28 Des-amido insulins formed: 4.9%
  Di- & polymers formed: 1.2%
[1]; [6]
  Asp^B28 Des-amido insulins formed: 3.7%
  Di- & polymers formed: 1.3%
[1]; [7]
  Asp^B28 Des-amido insulins formed: 3.6%
  Di- & polymers formed: 1.2%
[1]; [8]
  Asp^B28 Des-amido insulins formed: 4.0%
  Di- & polymers formed: 1.1%
[1]; [9]
  Asp^B28 Des-amido insulins formed: 3.4%
  Di- & polymers formed: 1.2%
[1]; [10]
  Asp^B28 Des-amido insulins formed: 3.1%
  Di- & polymers formed: 1.1%
[1]; [11]
  Asp^B28 Des-amido insulins formed: 3.7%
  Di- & polymers formed: 1.0%
[1]; [12]
  Asp^B28 Des-amido insulins formed: 3.1%
  Di- & polymers formed: 1.1%
[1]; [13]
  Asp^B28 Des-amido insulins formed: 3.1%
  Di- & polymers formed: 1.0%
[1]; [14]
  Asp^B28 Des-amido insulins formed: 3.5%
  Di- & polymers formed: 1.0%
[1]; [15]
  Asp^B28 Des-amido insulins formed: 2.7%
  Di- & polymers formed: 1.1%
[1]; [16]
  Asp^B28 Des-amido insulins formed: 2.9%
  Di- & polymers formed: 1.0%
[1]; [17]
  Asp^B28 Des-amido insulins formed: 3.5%
  Di- & polymers formed: 1.0%
[1]; [18]
  Asp^B28 Des-amido insulins formed: 3.0%
  Di- & polymers formed: 0.9%
[1]; [19]
  Asp^B28 Des-amido insulins formed: 2.8%
  Di- & polymers formed: 1.1%
[1]; [20]
  Asp^B28 Des-amido insulins formed: 3.1%
  Di- & polymers formed: 0.9%
[1]; [21]
  Asp^B28 Des-amido insulins formed: 2.2%
  Di- & polymers formed: 0.5%
[1]; [22]
  Asp^B28 Des-amido insulins formed: 2.0%
  Di- & polymers formed: 0.5%
[1]; 12 weeks at 25° C., NaCl added 0 mM, total Cl^- 3.8 mM, phosphate 9 mM
  Di- & polymers formed: 0.4%
[1]; [23]
  Asp^B28 Des-amido insulins formed: 1.7%
  Di- & polymers formed: 0.4%
[1]; [24]
  Asp^B28 Des-amido insulins formed: 1.7%
  Di- & polymers formed: 0.4%
[1]; [25]
  Asp^B28 Des-amido insulins formed: 1.8%
  Di- & polymers formed: 0.4%
[1]; [26]
  Asp^B28 Des-amido insulins formed: 1.5%
  Di- & polymers formed: 0.4%
[1]; [27]
  Asp^B28 Des-amido insulins formed: 1.4%
  Di- & polymers formed: 0.4%
[1]; [28]
  Asp^B28 Des-amido insulins formed: 1.5%
  Di- & polymers formed: 0.4%
[1]; [29]
  Asp^B28 Des-amido insulins formed: 1.4%
  Di- & polymers formed: 0.4%
[1]; [30]
  Asp^B28 Des-amido insulins formed: 1.5%
  Di- & polymers formed: 0.4%
[1]; [31]
  Asp^B28 Des-amido insulins formed: 1.5%
  Di- & polymers formed: 0.4%
[1]; [32]
  Asp^B28 Des-amido insulins formed: 1.3%
  Di- & polymers formed: 0.4%
[1]; [33]
  Asp^B28 Des-amido insulins formed: 1.4%
  Di- & polymers formed: 0.4%
[1]; [34]
  Asp^B28 Des-amido insulins formed: 1.6%
  Di- & polymers formed: 0.4%
[1]; [35]
  Asp^B28 Des-amido insulins formed: 1.3%
  Di- & polymers formed: 0.4%
[1]; [36]
  Asp^B28 Des-amido insulins formed: 1.3%
  Di- & polymers formed: 0.4%
[1]; [37]
  Asp^B28 Des-amido insulins formed: 1.4%
  Di- & polymers formed: 0.4%
[2]; [38]
  Asp^B28 Des-amido insulins formed: 3.44%
  Di- & polymers formed: 1.35%
[2]; [39]
  Asp^B28 Des-amido insulins formed: 3.57%
  Di- & polymers formed: 1.36%
[2]; [40]
  Asp^B28 Des-amido insulins formed: 3.48%
  Di- & polymers formed: 1.53%
[2]; [41]
  Asp^B28 Des-amido insulins formed: 3.31%
  Di- & polymers formed: 1.49%
[2]; [42]
  Asp^B28 Des-amido insulins formed: 2.54%
  Di- & polymers formed: 1.72%
[2]; [43]
  Asp^B28 Des-amido insulins formed: 2.47%
  Di- & polymers formed: 1.26%
[2]; [44]
  Asp^B28 Des-amido insulins formed: 3.35%
  Di- & polymers formed: 1.44%
[2]; [45]
  Asp^B28 Des-amido insulins formed: 3.41%
  Di- & polymers formed: 1.46%
[2]; [46]
  Asp^B28 Des-amido insulins formed: 1.74%
  Di- & polymers formed: 0.95%
[2]; [47]
  Asp^B28 Des-amido insulins formed: 2.58%
  Di- & polymers formed: 1.38%
[2]; [48]
  Asp^B28 Des-amido insulins formed: 1.91%
  Di- & polymers formed: 1.05%
[2]; [49]
  Asp^B28 Des-amido insulins formed: 2.00%
  Di- & polymers formed: 1.31%
[2]; [50]
  Asp^B28 Des-amido insulins formed: 3.07%
  Di- & polymers formed: 1.57%
[2]; [51]
  Asp^B28 Des-amido insulins formed: 2.85%
  Di- & polymers formed: 1.80%
[2]; [52]
  Asp^B28 Des-amido insulins formed: 2.71%
  Di- & polymers formed: 1.36%
[2]; [53]
  Asp^B28 Des-amido insulins formed: 2.24%
  Di- & polymers formed: 1.46%
[2]; [54]
  Asp^B28 Des-amido insulins formed: 1.56%
  Di- & polymers formed: 1.15%
[2]; [55]
  Asp^B28 Des-amido insulins formed: 1.68%
  Di- & polymers formed: 1.13%
[2]; [56]
  Asp^B28 Des-amido insulins formed: 2.71%
  Di- & polymers formed: 2.52%
[2]; [57]
  Asp^B28 Des-amido insulins formed: 2.34%
  Di- & polymers formed: 1.45%
[2]; [58]
  Asp^B28 Des-amido insulins formed: 2.18%
  Di- & polymers formed: 1.95%
[2]; [59]
  Asp^B28 Des-amido insulins formed: 1.90%
  Di- & polymers formed: 1.19%
[2]; [60]
  Asp^B28 Des-amido insulins formed: 1.51%
  Di- & polymers formed: 1.05%
[2]; [61]
  Asp^B28 Des-amido insulins formed: 1.46%
  Di- & polymers formed: 1.09%
